This is an account of results in IntAct's records for PubMed 19264842.

This test has as its target T1, plcg1_human PLCG1 (UniProt P19174).
T1 sequence: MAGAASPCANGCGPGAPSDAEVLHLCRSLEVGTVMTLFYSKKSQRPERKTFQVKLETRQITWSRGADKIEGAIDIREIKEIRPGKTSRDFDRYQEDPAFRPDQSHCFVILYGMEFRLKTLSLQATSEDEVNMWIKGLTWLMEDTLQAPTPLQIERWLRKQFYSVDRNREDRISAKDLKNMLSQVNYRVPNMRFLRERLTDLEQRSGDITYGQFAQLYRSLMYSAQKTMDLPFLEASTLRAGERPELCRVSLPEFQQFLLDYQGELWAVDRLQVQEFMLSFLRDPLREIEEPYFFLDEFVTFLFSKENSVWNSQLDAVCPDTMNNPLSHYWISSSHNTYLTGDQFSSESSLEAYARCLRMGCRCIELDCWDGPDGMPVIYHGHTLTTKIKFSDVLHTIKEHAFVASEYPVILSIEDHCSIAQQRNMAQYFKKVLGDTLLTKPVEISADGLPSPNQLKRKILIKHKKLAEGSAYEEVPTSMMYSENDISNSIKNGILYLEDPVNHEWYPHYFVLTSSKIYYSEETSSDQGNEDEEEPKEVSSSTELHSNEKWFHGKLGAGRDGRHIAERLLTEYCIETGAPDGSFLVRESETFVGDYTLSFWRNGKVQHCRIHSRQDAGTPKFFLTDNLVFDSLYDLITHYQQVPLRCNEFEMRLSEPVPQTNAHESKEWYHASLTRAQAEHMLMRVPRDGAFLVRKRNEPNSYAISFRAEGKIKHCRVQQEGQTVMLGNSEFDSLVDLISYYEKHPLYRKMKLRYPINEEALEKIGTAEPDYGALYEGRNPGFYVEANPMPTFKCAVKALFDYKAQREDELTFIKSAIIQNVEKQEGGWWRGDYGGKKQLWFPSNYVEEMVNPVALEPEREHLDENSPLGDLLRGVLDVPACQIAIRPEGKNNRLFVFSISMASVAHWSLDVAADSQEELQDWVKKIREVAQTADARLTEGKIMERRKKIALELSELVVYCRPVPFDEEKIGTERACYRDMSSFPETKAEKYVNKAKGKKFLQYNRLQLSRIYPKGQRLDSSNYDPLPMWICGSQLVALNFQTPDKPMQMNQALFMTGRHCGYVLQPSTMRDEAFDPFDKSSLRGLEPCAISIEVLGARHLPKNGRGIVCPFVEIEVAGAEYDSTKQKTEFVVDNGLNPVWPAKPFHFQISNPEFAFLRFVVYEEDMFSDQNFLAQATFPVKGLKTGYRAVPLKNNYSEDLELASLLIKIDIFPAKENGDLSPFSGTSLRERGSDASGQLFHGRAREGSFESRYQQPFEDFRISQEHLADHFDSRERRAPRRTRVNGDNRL

Consider “Ras-related C3 botulinum toxin substrate 1 (Homo sapiens) (from UniProt P63000) P106A”, for which the “effect of a mutation on the interaction” value is “disrupting interaction”.
For “Ras-related C3 botulinum toxin substrate 1 (Homo sapiens) (from UniProt P63000) P109A”, the “effect of a mutation on the interaction” value is “disrupting interaction”.
